Experimental data: patent publication US10772928B2, “Modulation and detection of a neuronal alternative splicing regulatory network for treatment and diagnosis of neurological disorders” (The Governing Council of the University of Toronto, priority 2014, dated 2020)

T1: nSR100 (Mus musculus, UniProt Q8BKA3)
T1 construct: host or cells: mouse N2A cells
T1 sequence (Q8BKA3 1-608): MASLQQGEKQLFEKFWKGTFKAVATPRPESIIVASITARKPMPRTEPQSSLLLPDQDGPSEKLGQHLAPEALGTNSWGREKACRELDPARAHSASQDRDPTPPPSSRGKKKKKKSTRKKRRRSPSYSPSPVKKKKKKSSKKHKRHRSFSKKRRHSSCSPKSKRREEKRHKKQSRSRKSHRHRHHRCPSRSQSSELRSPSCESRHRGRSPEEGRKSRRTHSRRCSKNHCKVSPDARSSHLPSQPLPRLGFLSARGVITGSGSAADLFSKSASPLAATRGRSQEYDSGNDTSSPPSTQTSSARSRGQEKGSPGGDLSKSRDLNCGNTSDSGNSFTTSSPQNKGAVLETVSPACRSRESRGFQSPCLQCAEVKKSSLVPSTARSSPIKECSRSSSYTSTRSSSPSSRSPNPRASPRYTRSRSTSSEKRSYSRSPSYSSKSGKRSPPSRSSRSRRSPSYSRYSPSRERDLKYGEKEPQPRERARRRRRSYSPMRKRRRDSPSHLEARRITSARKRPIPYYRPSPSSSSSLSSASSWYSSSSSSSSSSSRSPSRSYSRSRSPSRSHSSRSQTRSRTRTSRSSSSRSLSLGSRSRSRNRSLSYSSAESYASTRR

B1: Rnps1 (protein, UniProt Q99M28 1-305, looked up)
RNA-binding protein with …: MDLSGVKKKSLLGVKENNKKSSTRAPSPTKRKDRSDEKSKDRSKDKGATKESSEKDRGRDKTRKRRSASSGSSSTRSRSSSTSSSGSSTSTGSSSGSSSSSASSRSGSSSTSRSSSSSSSSGSPSPSRRRHDNRRRSRSKSKPPKRDEKERKRRSPSPKPTKVHIGRLTRNVTKDHIMEIFSTYGKIKMIDMPVERMHPHLSKGYAYVEFENPDEAEKALKHMDGGQIDGQEITATAVLAPWPRPPPRRFSPPRRMLPPPPMWRRSPPRMRRRSRSPRRRSPVRRRSRSPGRRRHRSRSSSNSSR
B2: Wdr6 (protein, UniProt Q99ME2 1-1125, looked up)
tRNA …: MDAFGDYVWPRATSELILLPVTGLECVGDRLLAGEGPDLLVYNLDLGGHLRMVKRVQNLLGHFLIHGFRVRPEPKGDLDSEAMIAVFGSKGLKVVKVSWGQSHLRELWRSGLWNMSDWIWDVRWIEGNVAVALGHNSVVLYDPVIGCMLQDVPCTDRCTLSSACLVGDTWKELTIVAGAVSNELLIWYPATALTDNKPVAPDRRVSGHVGVIFSMSYLESKGLLATASEDRSVRLWKVGDLRVPGGRVQNIGHCFGHSARVWQVKLLENYLISAGEDCVCLVWSHEGEILQAFRGHRGRGIRAIATHERQAWVVTGGDDSGIRLWHLAGRGYPGLGVSSLSFKSPSRPGALKAVTLAGSWRVLAVTDVGSLYLYDLEVKSWEQLLEDNRFRSYCLLEAAPGPEGFGLCALANGEGLVKVVPINTPTAAVEQKLFQGKVHSLSWALRGYEELLLLASGPGGVIACLEISAAPTGKAIFVKERCRYLLPPSKQRWHTCSAFLPPGDFLVCGDRRGSVMLFPVRPCLFKKPGAGSKAITAAEAPGAGSGSGGSESVPTGIGPVSTLHSLHGKQGVTSVTCHGGYLYSTGRDSSYFQLFVHGGHLQPVLRQKACRGMNWVAGLRMVPDGSMVILGFHANEFVVWSPRSHEKLHIVNCGGGHRSWAFSDTEAAMAFTYLKDGEVMLYRALGGCIRPNVILREGLHGREITCVKRVGTVTLGPEFEVPNLEHPDSLEPGSEGPGLIDIVITGSEDTTVCVLALPTTTGSAHALTSVCNHISSVRALAVWAVGTPGGPQDTRPGLTAQVVSAGGRAEIHCFSVMVTPDASTPSRLACHVMHLSSHRLDEYWDRQRNKHKMIKVDPETRYMSLAICELDNDRPGLGPGPLVAAACSDGAVRLFLLQDSGRILHLLAESFHHKRCVLKVHSFTHEAPNQRRRLILCSAATDGSLAFWDLTTAMDKGSTTLELPAHPGLPYQMGTPSMTVQAHSCGVNSLHTLPTPEGHHLVASGSEDGSLHVFTLAVKMPEPEEADGEAELVPQLCVLEEYSVPCAHAAHVTGVKILSPKLMVSASIDQRLTFWRLGQGEPTFMNSTVYHVPDVADMDCWPVSPEFGHRCALAGQGLEVYNWYD
B3: Cwc27 (protein, UniProt Q3TKY6 2-469, looked up)
Spliceosome-associated …: SNIYIQEPPTNGKVLLKTTAGDIDIELWSKEAPKACRNFIQLCLEAYYDNTIFHRVVPGFIVQGGDPTGTGTGGESIYGAPFKDEFHSRLRFNRRGLVAMANAGPHDNGSQFFFTLGRADELNNKHTIFGKVTGDTVYNMLRLTEVDIDDEERPRNPHRIKSCEVLFNPFDDITPREIKKPKNEKPEEEVKKLKPKGTKNFSLLSFGEEAEEEEEEVNRVSQSMKGRSKSSHDLLKDDPHLSSVPAVESEKDDATGDLEDDGEDDSAERDEYMEDDEKNLMRERIAKRLKKDASASVKSAGDGEKKPASRSEELRKEARQLKRELLAAKQKKETAIKVEEGREEEEAAPDGAVAEYRREKQKYEALRKQQPKKGTSREDQTLALLSQFKSKLTQAITETPENSVPEAEVEDDEGWMSHVLQFEDKTRKVKDASMQDSDTFEIYDPRNPVNKRRREESKKLLREKKERR
B4: Ap2a1 (protein, UniProt P17426 1-977, looked up)
AP-2 complex subunit alpha-1: MPAVSKGDGMRGLAVFISDIRNCKSKEAEIKRINKELANIRSKFKGDKALDGYSKKKYVCKLLFIFLLGHDIDFGHMEAVNLLSSNKYTEKQIGYLFISVLVNSNSELIRLINNAIKNDLASRNPTFMCLALHCIANVGSREMGEAFAADIPRILVAGDSMDSVKQSAALCLLRLYKASPDLVPMGEWTARVVHLLNDQHMGVVTAAVSLITCLCKKNPDDFKTCISLAVSRLSRIVSSASTDLQDYTYYFVPAPWLSVKLLRLLQCYPPPEDAAVKGRLVECLETVLNKAQEPPKSKKVQHSNAKNAILFETISLIIHYDSEPNLLVRACNQLGQFLQHRETNLRYLALESMCTLASSEFSHEAVKTHIDTVINALKTERDVSVRQRAADLLYAMCDRSNAKQIVSEMLRYLETADYAIREEIVLKVAILAEKYAVDYSWYVDTILNLIRIAGDYVSEEVWYRVLQIVTNRDDVQGYAAKTVFEALQAPACHENMVKVGGYILGEFGNLIAGDPRSSPPVQFSLLHSKFHLCSVATRALLLSTYIKFINLFPETKATIQGVLRAGSQLRNADVELQQRAVEYLTLSSVASTDVLATVLEEMPPFPERESSILAKLKRKKGPGAASALDDSRRDTSSNDINGGVEPTPSTVSTPSPSADLLGLRAAPPPAAPPAPVGGNLLVDVFSDGPTAQPSLGPTPEEAFLSELEPPAPESPMALLADPAPAADPGPEDIGPPIPEADELLNKFVCKNSGVLFENQLLQIGVKSEFRQNLGRMYLFYGNKTSVQFQNFLPTVVHPGDLQTQLAVQTKRVAAQVDGGAQVQQVLNIECLRDFLTPPLLSVRFRYGGTAQSLTLKLPVTINKFFQPTEMAAQDFFQRWKQLSLPLQEAQKIFKANHPMDAEVTKAKLLGFGSALLDNVDPNPENFVGAGIIQTKALQVGCLLRLEPNAQAQMYRLTLRTSKEPVSRHLCELLAQQF
B5: Plk1 (protein, UniProt Q07832 1-603, looked up)
Serine/threonine-protein …: MNAAAKAGKLARAPADLGKGGVPGDAVPGAPVAAPLAKEIPEVLVDPRSRRQYVRGRFLGKGGFAKCFEISDADTKEVFAGKIVPKSLLLKPHQKEKMSMEISIHRSLAHQHVVGFHDFFEDSDFVFVVLELCRRRSLLELHKRRKALTEPEARYYLRQIVLGCQYLHRNQVIHRDLKLGNLFLNEDLEVKIGDFGLATKVEYEGERKKTLCGTPNYIAPEVLSKKGHSFEVDVWSIGCIMYTLLVGKPPFETSCLKETYLRIKKNEYSIPKHINPVAASLIQKMLQTDPTARPTIHELLNDEFFTSGYIPARLPITCLTIPPRFSIAPSSLDPSSRKPLKVLNKGVENPLPDRPREKEEPVVRETNEAIECHLSDLLQQLTSVNASKPSERGLVRQEEAEDPACIPIFWVSKWVDYSDKYGLGYQLCDNSVGVLFNDSTRLILYNDGDSLQYIERDGTESYLTVSSHPNSLMKKITLLNYFRNYMSEHLLKAGANITPREGDELARLPYLRTWFRTRSAIILHLSNGTVQINFFQDHTKLILCPLMAAVTYINEKRDFQTYRLSLLEEYGCCKELASRLRYARTMVDKLLSSRSASNRLKAS
B6: Rbm39 (protein, UniProt Q8VH51 2-530, looked up)
RNA-binding protein 39: ADDIDIEAMLEAPYKKDENKLNSANGHEERSKKRKKSKSRSRSHERKRSKSKERKRSRDRERKKSKSRERKRSRSKERRRSRSRSRDRRFRGRYRSPYSGPKFNSAIRGKIGLPHSIKLSRRRSRSKSPFRKDKSPVREPIDNLTPEERDARTVFCMQLAARIRPRDLEEFFSTVGKVRDVRMISDRNSRRSKGIAYVEFVDVSSVPLAIGLTGQRVLGVPIIVQASQAEKNRAAAMANNLQKGSAGPMRLYVGSLHFNITEDMLRGIFEPFGRIESIQLMMDSETGRSKGYGFITFSDSECAKKALEQLNGFELAGRPMKVGHVTERTDASSASSFLDSDELERTGIDLGTTGRLQLMARLAEGTGLQIPPAAQQALQMSGSLAFGAVAEFSFVIDLQTRLSQQTEASALAAAASVQPLATQCFQLSNMFNPQTEEEVGWDTEIKDDVIEECNKHGGVIHIYVDKNSAQGNVYVKCPSIAAAIAAVNALHGRWFAGKMITAAYVPLPTYHNLFPDSMTATQLLVPSRR

What follows are molecules tested against T1, nSR100 (assay: AP-MS nSR100 interaction partners from mouse N2A cells (Table 5)). Conditions: bait Srrm4.
Format: binding
From the text: By applying affinity purification coupled to mass-spectrometry (AP-MS), several interaction nSR100 partner proteins were detected that provide insight into mechanisms of post-translational regulation of nSR100 levels.

Molecule	AvgP (average of the SAINT scores)	MaxP (maximal SAINT score)
B1	1	1
B2	1	1
B3	1	1
B4	1	1
B5	1	1
B6	1	1

Same assay, conditions: bait Srrm4, 0.1 added to prevent division by 0

Molecule	FoldChange between the prey Avg spectra of the bait and control purifications
B1	17
B2	160
B3	85
B4	7.2
B5	430
B6	5.46

Same assay, conditions: bait Srrm4, 2 replicates

Molecule	AvgSpec (average number of spectra per replicate)
B1	25.5
B2	16
B3	8.5
B4	54
B5	43
B6	65.5

Same assay, conditions: bait Srrm4, biological replicate 1 (first number of the cell), AP-MS

Molecule	Spectra (number of spectra for the prey in the purification of the bait)
B1	26
B2	13
B3	6
B4	46
B5	43|43
B6	65

Same assay, conditions: bait Srrm4, biological replicate 2 (second number of the cell), AP-MS

Molecule	Spectra (number of spectra for the prey in the purification of the bait)
B1	25
B2	19
B3	11
B4	62
B5	43|43
B6	66

Same assay, conditions: bait Srrm4, sum of spectra over 2 replicates

Molecule	SpecSum
B1	51
B2	32
B3	17
B4	108
B5	86
B6	131
